Source: publication PMC9352680, “A comprehensive thermodynamic model for RNA binding by the Saccharomyces cerevisiae Pumilio protein PUF4”

Biological target: T1, PUF4 RNA-binding domain (Saccharomyces cerevisiae, UniProt P25339 537-888)
T1 sequence: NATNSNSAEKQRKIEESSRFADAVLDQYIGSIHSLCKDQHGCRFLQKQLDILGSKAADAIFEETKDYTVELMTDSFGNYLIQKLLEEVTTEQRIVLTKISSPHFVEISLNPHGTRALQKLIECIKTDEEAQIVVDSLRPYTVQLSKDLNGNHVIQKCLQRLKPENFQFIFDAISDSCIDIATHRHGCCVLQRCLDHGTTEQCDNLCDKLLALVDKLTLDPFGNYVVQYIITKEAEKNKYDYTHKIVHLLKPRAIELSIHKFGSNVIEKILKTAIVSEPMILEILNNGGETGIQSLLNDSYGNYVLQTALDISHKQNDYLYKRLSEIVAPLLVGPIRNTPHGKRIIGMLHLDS
Test: Mg; RNA-MaP; 20 mM Na-HEPES pH 7.4, 30 mM KOAc, 0.75 mM MgCl2, 0.1% Tween-20, 5% glycerol, 0.1 mg/mL BSA, 2 mM DTT; 25 C; 0.0125-409.6 nM protein
Details: tags: N-His6-TEV cleaved; C-SNAP kept, Cy3B-labelled; label: tethered on chip by stalled RNA polymerase

B1: Ic_S1_P5E.1_K5.1_C5.1_H5.1_A5.1_[T5A]_[T6A]_[A7C]_F5.1_[T8A]_[T9A]_[A10C]_T5.1 (ssRNA)
RNA: UCUCUUUGUAAACAACUCUCUU
B1 was tested, and the Kd was 88.4 nM.

B2: Ic_S1_P5E.1_K5.1_C5.1_H5.1_A5.1_[T6C]_[A7T]_F5.1_[T8A]_T5.1 (ssRNA)
RNA: UCUCUUUGUAUCUAUAUCUCUU
B2 was tested, and the Kd was 11.5 nM.

B3: Ic_S1_P5E.1_K5.1_C5.1_H5.1_A5.1_[T6A]_F5.1_[T8C]_[T9G]_[A10T]_T5.1 (ssRNA)
RNA: UCUCUUUGUAUAACGUUCUCUU
For B3, the Kd was 34.4 nM.

B4: Ic_S1_P5E.1_K5.1_C5.1_H5.1_A5.1_[T5A]_[T6C]_[A7T]_F5.1_[T9G]_[A10T]_T5.1 (ssRNA)
RNA: UCUCUUUGUAACUUGUUCUCUU
B4 showed a Kd of 49.4 nM.

B5: Ic_S1_P5E.1_K5.1_C5.1_H5.1_A5.1_[T6G]_[A7G]_F5.1_[A10G]_T5.1 (ssRNA)
RNA: UCUCUUUGUAUGGUUGUCUCUU
B5 was tested, and the Kd was 717 nM.

B6: Ic_S1_P5E.1_K5.1_C5.1_H5.1_A5.1_[T5A]_[T6A]_[A7T]_F5.1_[T8C]_[T9A]_[A10G]_T5.1 (ssRNA)
RNA: UCUCUUUGUAAAUCAGUCUCUU
Work on B6 yielded a Kd of 26.1 nM.

B7: Ia_S1_P4E.1_K4.1_C4.1_H4.1_A4.1_F4.1_[T8A]_T4.1 (ssRNA)
RNA: UCUCUUUGUAUAUAAUCUCUU
In the case of B7, the Kd is reported as 4.12 nM.

B8: Ic_S1_P5E.1_K5.1_C5.1_H5.1_A5.1_[T5C]_[T6C]_F5.1_[T8A]_[A10C]_T5.1 (ssRNA)
RNA: UCUCUUUGUACCAAUCUCUCUU
B8 was tested, and the Kd was 119 nM.

B9: Ic_S1_P5E.1_K5.1_C5.1_H5.1_A5.1_[T6G]_[A7G]_F5.1_[T9A]_[A10T]_T5.1 (ssRNA)
RNA: UCUCUUUGUAUGGUAUUCUCUU
B9 was tested, and the Kd was 13.3 nM.

B10: Ic_S1_P5E.1_K5.1_C5.1_H5.1_A5.1_[T5C]_[T6C]_[A7C]_F5.1_[T8G]_[T9C]_[A10G]_T5.1 (ssRNA)
RNA: UCUCUUUGUACCCGCGUCUCUU
Binder B10 has a Kd greater than 2300 nM.

B11: Ib_S1_P3E.1_K3.1_C3.1_H3.1_[G2C]_[T3A]_A3.1_F3.1_T3.1 (ssRNA)
RNA: UCUCUUUCAAUAUAUCUCUU
B11 gave a Kd greater than 2300 nM.

B12: Ic_S1_P5E.1_K5.1_C5.1_H5.1_A5.1_[T5A]_[A7C]_F5.1_[T8A]_[T9G]_[A10C]_T5.1 (ssRNA)
RNA: UCUCUUUGUAAUCAGCUCUCUU
For B12, the Kd was 1300 nM.

B13: Ic_S1_P5E.1_K5.1_C5.1_H5.1_A5.1_[T6C]_[A7T]_F5.1_[T9G]_T5.1 (ssRNA)
RNA: UCUCUUUGUAUCUUGAUCUCUU
In the case of B13, the Kd is reported as 72.1 nM.

B14: Ic_S1_P5E.1_K5.1_C5.1_H5.1_A5.1_[T6A]_[A7G]_F5.1_[T8C]_[T9C]_[A10T]_T5.1 (ssRNA)
RNA: UCUCUUUGUAUAGCCUUCUCUU
B14 was tested, and the Kd was 114 nM.

B15: Ic_S1_P5E.1_K5.1_C5.1_H5.1_A5.1_[T6C]_[A7G]_F5.1_[T9A]_[A10C]_T5.1 (ssRNA)
RNA: UCUCUUUGUAUCGUACUCUCUU
With B15 the Kd was 13.9 nM.

B16: Ic_S1_P5E.1_K5.1_C5.1_H5.1_A5.1_[T5G]_[A7C]_F5.1_[T9A]_T5.1 (ssRNA)
RNA: UCUCUUUGUAGUCUAAUCUCUU
Binder B16 has a Kd of 36 nM.

B17: Ic_S1_P5E.1_K5.1_C5.1_H5.1_A5.1_[T6G]_[A7T]_F5.1_[T9C]_[A10C]_T5.1 (ssRNA)
RNA: UCUCUUUGUAUGUUCCUCUCUU
Work on B17 yielded a Kd of 28.6 nM.

B18: Ic_S1_P5E.1_K5.1_C5.1_H5.1_A5.1_[T5A]_[T6A]_[A7G]_F5.1_[T8C]_[A10C]_T5.1 (ssRNA)
RNA: UCUCUUUGUAAAGCUCUCUCUU
B18 was tested, and the Kd was 1270 nM.

B19: Ic_S1_P5E.1_K5.1_C5.1_H5.1_A5.1_[T5C]_[T6A]_[A7C]_F5.1_[T8C]_[T9G]_T5.1 (ssRNA)
RNA: UCUCUUUGUACACCGAUCUCUU
B19 gave a Kd of 425 nM.

B20: Ib_S1_P3E.1_K3.1_C3.1_H3.1_[G2T]_[T3A]_A3.1_F3.1_T3.1 (ssRNA)
RNA: UCUCUUUUAAUAUAUCUCUU
B20 gave a Kd greater than 2300 nM.

B21: Ic_S1_P5E.1_K5.1_C5.1_H5.1_A5.1_[T5C]_[T6C]_F5.1_[T9G]_T5.1 (ssRNA)
RNA: UCUCUUUGUACCAUGAUCUCUU
For B21, the Kd was 8.03 nM.

B22: Ic_S1_P5E.1_K5.1_C5.1_H5.1_A5.1_[T5A]_[T6C]_[A7C]_F5.1_[T8A]_[A10G]_T5.1 (ssRNA)
RNA: UCUCUUUGUAACCAUGUCUCUU
B22 gave a Kd of 481 nM.

B23: Ic_S1_P5E.1_K5.1_C5.1_H5.1_A5.1_[T5A]_[A7G]_F5.1_[A10T]_T5.1 (ssRNA)
RNA: UCUCUUUGUAAUGUUUUCUCUU
Work on B23 yielded a Kd of 118 nM.

B24: Ic_S1_P5E.1_K5.1_C5.1_H5.1_A5.1_[T5C]_[T6A]_[A7T]_F5.1_[T9A]_[A10C]_T5.1 (ssRNA)
RNA: UCUCUUUGUACAUUACUCUCUU
B24 was tested, and the Kd was 0.694 nM.

B25: Ic_S1_P5E.1_K5.1_C5.1_H5.1_A5.1_[T5C]_[T6A]_[A7G]_F5.1_[T9C]_[A10C]_T5.1 (ssRNA)
RNA: UCUCUUUGUACAGUCCUCUCUU
B25 showed a Kd of 13.5 nM.

B26: Ib_S1_P3E.1_K3.1_C3.1_H3.1_[G2C]_[A4G]_A3.1_F3.1_T3.1 (ssRNA)
RNA: UCUCUUUCUGUAUAUCUCUU
B26 showed a Kd of 27.6 nM.

B27: Ic_S1_P5E.1_K5.1_C5.1_H5.1_A5.1_F5.1_[T8C]_[T9C]_[A10T]_T5.1 (ssRNA)
RNA: UCUCUUUGUAUUACCUUCUCUU
B27 was tested, and the Kd was 496 nM.

B28: Ic_S1_P5E.1_K5.1_C5.1_H5.1_A5.1_[T6G]_[A7T]_F5.1_[T8C]_[T9C]_[A10C]_T5.1 (ssRNA)
RNA: UCUCUUUGUAUGUCCCUCUCUU
B28 showed a Kd of 125 nM.

B29: Ic_S1_P5E.1_K5.1_C5.1_H5.1_A5.1_[T5A]_[A7T]_F5.1_[T9G]_[A10C]_T5.1 (ssRNA)
RNA: UCUCUUUGUAAUUUGCUCUCUU
In the case of B29, the Kd is reported as 81.9 nM.

B30: Ib_S1_P3E.1_K3.1_C3.1_H3.1_[G2C]_[A4C]_A3.1_F3.1_T3.1 (ssRNA)
RNA: UCUCUUUCUCUAUAUCUCUU
In the case of B30, the Kd is reported as greater than 2300 nM.

B31: Ic_S1_P5E.1_K5.1_C5.1_H5.1_A5.1_[T5A]_[A7T]_F5.1_[T9C]_[A10G]_T5.1 (ssRNA)
RNA: UCUCUUUGUAAUUUCGUCUCUU
B31 gave a Kd of 92.7 nM.

B32: Ic_S1_P5E.1_K5.1_C5.1_H5.1_A5.1_[T5C]_[A7G]_F5.1_[T8C]_[T9G]_[A10C]_T5.1 (ssRNA)
RNA: UCUCUUUGUACUGCGCUCUCUU
With B32 the Kd was 1380 nM.
